From patent US10184116B2, “Chimeric genes for the catalytic protein of Oplophorus luciferase and use thereof” (JNC CORPORATION, priority 2014, dated 2019)
Substitutions are numbered along the chain they refer to. Names may count otherwise.

B1: WNanoKAZ-V90I: single amino acid-substituted WNanoKAZ mutant, valine 90 back to isoleucine; SEQ ID NO: 8 (protein)
chain: FTLADFVGDWQQTAGYNQDQVLEQGGLSSLFQALGVSVTPIQKVVLSGENGLKADIHVIIPYEGLSGFQMGLIEMIFKVVYPVDDHHFKIILHYGTLVIDGVTPNMIDYFGRPYEGIAVFDGKKITVTGTLWNGNKIIDERLINPDGSLLFRVTINGVTGWRLCERILA
B2: WNanoKAZ-K124Q: single amino acid-substituted WNanoKAZ mutant K124Q; SEQ ID NO: 12 (protein)
chain: B1 chain with I90V, K124Q
B3: WNanoKAZ-R166N: single amino acid-substituted WNanoKAZ mutant R166N; SEQ ID NO: 16 (protein)
chain: B1 chain with I90V, R166N
B4: WNanoKAZ-E115P: WNanoKAZ with substitution of proline for glutamic acid at position 115; SEQ ID NO: 10 (protein)
chain: B1 chain with I90V, E115P
B5: WNanoKAZ-I138Y: single amino acid-substituted WNanoKAZ mutant I138Y; SEQ ID NO: 14 (protein)
chain: B1 chain with I90V, I138Y

Test system: not listed separately
Assay: Luminescence activity of ZZ-fused WNanoKAZ mutants in crude enzyme solution (Example 10)
Assay type: biochemical
Conditions: ZZ-fused, pCold-ZZ-P- vector in E. coli, coelenterazine substrate, KAZ = 1.0
Experimental: In order to express ZZ-fused KAZ mutants in E. coli, the recombinant plasmid produced in EXAMPLE 8 and pCold-ZZ-P-WNanoKAZ produced in EXAMPLE 1 were used. The crude enzyme solution was prepared in a manner similar to EXAMPLE 2, using the E. coli BL21 strain (Novagen, Madison, Wis.) as a host cell. Then, 5 μL of the crude enzyme solution obtained was subjected to SDS-PAGE analysis to confirm the protein expression in all mutants. In FIG. 1, M and 1 to 8 represent as follows. M: molecular weight size markers; 1: ZZ-P-KAZ; 2: ZZ-P-WNanoKAZ; 3: ZZ-P-WNanoKAZ-V90I; 4: ZZ-P-WNanoKAZ-E115P; 5: ZZ-P-WNanoKAZ-K124Q; 6: ZZ-P-WNanoKAZ-I138Y; 7: ZZ-P-WNanoKAZ-R166N; 8: ZZ-P-dnKAZ. It was confirmed from FIG. 1 that all mutants were expressed.
(§1) DTT was added to the crude enzyme solution obtained in EXAMPLE 9 at a final concentration of 1 mM, and then allowed to stand in an ice-water bath over 8 hours or more. After 1 μL of the crude enzyme solution was added to 100 μL of 30 mM Tris-HCl (pH 7.6)-10 mM EDTA (Wako Pure Chemical Industries, Ltd.) containing 1 μg of coelenterazine (manufactured by JNC Corp.), a luminescence reaction was started. Luminescence activity was measured for 60 seconds using a luminometer (manufactured by Atto Inc.: AB2200). The maximum intensity of luminescence (Imax) was given as a relative luminescence activity (rlu).

| Molecule | Relative luminescence activity (Imax) |
| --- | --- |
| B1 | 34 |
| B2 | 34 |
| B3 | 32 |
| B4 | 31 |
| B5 | 8.5 |

Same assay, conditions: coelenterazine substrate

| Molecule | activity compared with dnKAZ (in words) |
| --- | --- |
| B5 | decreased to the same level as that of dnKAZ |

Same assay, conditions: coelenterazine substrate, Imax

| Molecule | fold higher activity than native KAZ | fold higher activity than the relative activity 7.4 of dnKAZ |
| --- | --- | --- |
| B1 | 34 fold | 4.6 fold |
| B2 | 34 fold | 4.6 fold |
| B3 | 32 fold | 4.3 fold |
| B4 | 31 fold | 4.2 fold |
| B5 | 8.5 fold | 1.1 fold |

Test system: not listed separately
Assay: Substrate specificity of WNanoKAZ mutants, crude enzyme solution (Example 11)
Assay type: biochemical
Conditions: Imax
Experimental: as §1
Each of the coelenterazine analogues used for substrate specificity studies was synthesized by the methods described in publications. Specifically, bis-coelenterazine was synthesized by the method described in Nakamura et al. (1997) Tetrahedron Lett. 38: 6405-6406, furimazine by the method described in Hall et al. (2012) ACS Chem. Biol. […], and, 6h-coelenterazine, f-coelenterazine and 6h-f-coelenterazine by the method described in Inouye et al (2013) Biochem. Biophys. Res. Commun. 437: 23-28. Luminescence activity was measured by the same method as in EXAMPLE 10, using the crude enzyme solution obtained in EXAMPLE 10, in which coelenterazine or its analogue was used as the luminescence substrate.

| Molecule | Relative luminescence activity, Furimazine, Imax | Relative luminescence activity, bis-CTZ, Imax | Relative luminescence activity, f-CTZ, Imax | Relative luminescence activity, h-CTZ, Imax |
| --- | --- | --- | --- | --- |
| B1 | 17 | 23 | 31 | 41 |
| B2 | 18 | 36 | 64 | 70 |
| B3 | 17 | 17 | 38 | 43 |
| B4 | 13 | 18 | 22 | 27 |
| B5 | 11 | 18 | 29 | 35 |

Same assay, conditions: Int.

| Molecule | Relative luminescence activity, Furimazine, Int. | Relative luminescence activity, bis-CTZ, Int. | Relative luminescence activity, f-CTZ, Int. | Relative luminescence activity, h-CTZ, Int. |
| --- | --- | --- | --- | --- |
| B1 | 15 | 21 | 22 | 22 |
| B2 | 11 | 33 | 40 | 41 |
| B3 | 12 | 18 | 27 | 28 |
| B4 | 11 | 19 | 14 | 17 |
| B5 | 8.9 | 17 | 18 | 22 |

Same assay, conditions: coelenterazine substrate

| Molecule | fold higher activity than the other coelenterazine analogues when coelenterazine was used as the substrate |
| --- | --- |
| B1 | 4.6 fold |
| B2 | 4.6 fold |
| B3 | 4.3 fold |
| B4 | 4.2 fold |
| B5 | 1.1 fold |

Same assay, conditions: substrate 6h-CTZ, Imax

| Molecule | Relative luminescence activity, 6h-CTZ, Imax |
| --- | --- |
| B1 | 5.1 |
| B2 | 6.2 |
| B3 | 4.6 |
| B4 | 5.9 |
| B5 | 1.7 |

Same assay, conditions: substrate 6h-CTZ, Int.

| Molecule | Relative luminescence activity, 6h-CTZ, Int. |
| --- | --- |
| B1 | 5.6 |
| B2 | 6.1 |
| B3 | 6.1 |
| B4 | 6.1 |
| B5 | 2.8 |

Same assay, conditions: substrate 6h-f-CTZ, Imax

| Molecule | Relative luminescence activity, 6h-f-CTZ, Imax |
| --- | --- |
| B1 | 23 |
| B2 | 40 |
| B3 | 13 |
| B4 | 14 |
| B5 | 17 |

Same assay, conditions: substrate 6h-f-CTZ, Int.

| Molecule | Relative luminescence activity, 6h-f-CTZ, Int. |
| --- | --- |
| B1 | 23 |
| B2 | 35 |
| B3 | 8.8 |
| B4 | 11 |
| B5 | 10 |

Same assay, conditions: substrate CTZ, Imax

| Molecule | Relative luminescence activity, CTZ, Imax |
| --- | --- |
| B1 | 34 |
| B2 | 34 |
| B3 | 32 |
| B4 | 31 |
| B5 | 8.5 |

Same assay, conditions: substrate CTZ, Int.

| Molecule | Relative luminescence activity, CTZ, Int. |
| --- | --- |
| B1 | 35 |
| B2 | 32 |
| B3 | 36 |
| B4 | 26 |
| B5 | 8.9 |

Test system: CHO-K1 cells
Assay: Luminescence activity of WNanoKAZ mutants expressed by secretory expression vectors in animal culture cells (Example 13)
Assay type: cell-based, Chinese hamster
Conditions: pcDNA3-GLsp- secretory vector, cell extracts, coelenterazine substrate
Experimental: Chinese hamster ovary cell line CHO-K1 was cultured in Ham's F-12 medium (manufactured by Wako Pure Chemical Industries, Ltd.) supplemented with 10% (v/v) fetal bovine serum (manufactured by Biowest Inc.). The CHO-K1 cells were seeded in a 6-well plate in 1×10^5 cells/well/2 mL medium (n=2) and cultured in an incubator at 37° C. in 5% (v/v) CO2. After 24 hours, the purified recombinant plasmid was transfected to CHO-K1 cells using a FuGene HD transfection kit (manufactured by Promega Corp.) and the cells were used for subsequent experiment. Specifically, 1 μg of the recombinant plasmid, 0.1 μg of the internal standard vector pGL4.13 [Luc2/sv40] and 3 μL of FuGene HD were added to 100 μL of the medium and allowed to stand at room temperature for 15 minutes. Subsequently, 100 μL of the DNA-FuGene complex solution was added to the cells in the 6-well plate. After incubation for 46 hours, the culture medium was collected. On the other hand, the KAZ mutant expressed in the cells was washed 3 times with 3 mL of 1×PBS, then suspended in 1 mL of 1×PBS and disrupted by sonication on ice. The resultant cell extract of WNanoKAZ was used as the enzyme solution.
After adding 5 μL of the culture medium and cell extract obtained in EXAMPLE 5 to 100 μL of 30 mM Tris-HCl (pH 7.6)-10 mM EDTA (Wako Pure Chemical Industries, Ltd.) containing 1 μg of coelenterazine (manufactured by JNC Corp.), a luminescence reaction was started. Luminescence activity was measured for 60 seconds using a luminometer (manufactured by Atto Inc.: AB2200). The maximum intensity of luminescence (Imax) was given as a percentage (%).
The recombinant plasmid obtained in EXAMPLE 12 or 4 was purified in a manner similar to EXAMPLE 5 and dissolved in sterile water. The firefly luciferase vector (pGL4.13 [Luc2/sv40]: manufactured by Promega Corp.) was similarly prepared and used as an internal standard.
Culture medium containing two amino acid-substituted KAZ mutants and three amino acid-substituted KAZ mutants and cell extracts of the KAZ mutants as the enzyme solutions were prepared by the same procedure as in EXAMPLE 9.
The resultant culture medium and cell extracts were used to measure luminescence activity as in EXAMPLE 6.

| Molecule | Relative luminescence activity (%, Imax) Cell extracts |
| --- | --- |
| B1 | 15% |
| B2 | 21% |
| B3 | 26% |
| B4 | 12% |
| B5 | 10% |

Same assay, conditions: pcDNA3-GLsp- secretory vector, culture medium, coelenterazine substrate

| Molecule | Relative luminescence activity (%, Imax) Culture medium |
| --- | --- |
| B1 | 0.03% |
| B2 | 0.03% |
| B3 | <0.01% |
| B4 | <0.01% |
| B5 | <0.01% |
